From US20210388087A1 (Chugai, published 2021) come the findings set out here.

B1: GLS3000 T92D (antibody, name in Kabat numbering, V domains shown)
VH: QVQLVESGGGVVQPGRSLRLSCAASGFTFSNAWMHWVRQAPGKGLEWVAQIKAKSNNYATYYAESVKGRFTISRDDSKNSLYLQMNSLKTEDTAVYYCRYVHYGAYYGVDAWGQGTTVTVSS
VL: DIVMTQSPLSLPVTPGEPASISCRSSQSLVHSNRNTYLHWYQQKPGQAPRLLIYKVSNRFSGVPDRFSGSGSGTDFTLKISRVEAEDVGVYYCGQGDQVPYTFGQGTKLEIK
notes: one-arm IgG as m2
B2: GLS3000 V27cD (antibody, name in Kabat numbering, V domains shown)
VH: B1 VH
VL: B1 VL with V30D, D97T
notes: one-arm IgG as m2
B3: GLS3000 V51D (antibody, name in Kabat numbering, V domains shown)
VH: B1 VH
VL: B1 VL with V56D, D97T
notes: one-arm IgG as m2
B4: GLS3000 T97P (antibody, name in Kabat numbering, V domains shown)
VH: B1 VH
VL: B1 VL with D97T, T102P
notes: one-arm IgG as m2
B5: GLS3000 V51I (antibody, name in Kabat numbering, V domains shown)
VH: B1 VH
VL: B1 VL with V56I, D97T
notes: one-arm IgG as m2
B6: GLS3000 T92L (antibody, name in Kabat numbering, V domains shown)
VH: B1 VH
VL: B1 VL with D97L
notes: one-arm IgG as m2
B7: GLS3000 V27cS (antibody, name in Kabat numbering, V domains shown)
VH: B1 VH
VL: B1 VL with V30S, D97T
notes: one-arm IgG as m2
B8: GLS3000 V94I (antibody, name in Kabat numbering, V domains shown)
VH: B1 VH
VL: B1 VL with D97T, V99I
notes: one-arm IgG as m2
B9: GLS3000 V94G (antibody, name in Kabat numbering, V domains shown)
VH: B1 VH
VL: B1 VL with D97T, V99G
notes: one-arm IgG as m2
B10: GLS3000 V94N (antibody, name in Kabat numbering, V domains shown)
VH: B1 VH
VL: B1 VL with D97T, V99N
notes: one-arm IgG as m2
B11: GLS3000 V94K (antibody, name in Kabat numbering, V domains shown)
VH: B1 VH
VL: B1 VL with D97T, V99K
notes: one-arm IgG as m2
B12: GLS3000 V27cI (antibody, name in Kabat numbering, V domains shown)
VH: B1 VH
VL: B1 VL with V30I, D97T
notes: one-arm IgG as m2
B13: GLS3000 V27cY (antibody, name in Kabat numbering, V domains shown)
VH: B1 VH
VL: B1 VL with V30Y, D97T
notes: one-arm IgG as m2
B14: GLS3000 V94D (antibody, name in Kabat numbering, V domains shown)
VH: B1 VH
VL: B1 VL with D97T, V99D
notes: one-arm IgG as m2
B15: GLS3000 V94H (antibody, name in Kabat numbering, V domains shown)
VH: B1 VH
VL: B1 VL with D97T, V99H
notes: one-arm IgG as m2
B16: GLS3000 T92I (antibody, name in Kabat numbering, V domains shown)
VH: B1 VH
VL: B1 VL with D97I
notes: one-arm IgG as m2
B17: GLS3000 T92Y (antibody, name in Kabat numbering, V domains shown)
VH: B1 VH
VL: B1 VL with D97Y
notes: one-arm IgG as m2
B18: GLS3000 V94A (antibody, name in Kabat numbering, V domains shown)
VH: B1 VH
VL: B1 VL with D97T, V99A
notes: one-arm IgG as m2
B19: GLS3000 T92P (antibody, name in Kabat numbering, V domains shown)
VH: B1 VH
VL: B1 VL with D97P
notes: one-arm IgG as m2
B20: GLS3000 V94E (antibody, name in Kabat numbering, V domains shown)
VH: B1 VH
VL: B1 VL with D97T, V99E
notes: one-arm IgG as m2
B21: GLS3000 T92S (antibody, name in Kabat numbering, V domains shown)
VH: B1 VH
VL: B1 VL with D97S
notes: one-arm IgG as m2
B22: GLS3000 V27cE (antibody, name in Kabat numbering, V domains shown)
VH: B1 VH
VL: B1 VL with V30E, D97T
notes: one-arm IgG as m2
B23: GLS3000 T92E (antibody, name in Kabat numbering, V domains shown)
VH: B1 VH
VL: B1 VL with D97E
notes: one-arm IgG as m2
B24: GLS3000 V94L (antibody, name in Kabat numbering, V domains shown)
VH: B1 VH
VL: B1 VL with D97T, V99L
notes: one-arm IgG as m2
B25: GLS3000 V94F (antibody, name in Kabat numbering, V domains shown)
VH: B1 VH
VL: B1 VL with D97T, V99F
notes: one-arm IgG as m2
B26: GLS3000 V94M (antibody, name in Kabat numbering, V domains shown)
VH: B1 VH
VL: B1 VL with D97T, V99M
notes: one-arm IgG as m2
B27: GLS3000 V27cL (antibody, name in Kabat numbering, V domains shown)
VH: B1 VH
VL: B1 VL with V30L, D97T
notes: one-arm IgG as m2
B28: GLS3000 V51G (antibody, name in Kabat numbering, V domains shown)
VH: B1 VH
VL: B1 VL with V56G, D97T
notes: one-arm IgG as m2
B29: GLS3000 V51P (antibody, name in Kabat numbering, V domains shown)
VH: B1 VH
VL: B1 VL with V56P, D97T
notes: one-arm IgG as m2
B30: GLS3000 V51E (antibody, name in Kabat numbering, V domains shown)
VH: B1 VH
VL: B1 VL with V56E, D97T
notes: one-arm IgG as m2
B31: GLS3000 V27cP (antibody, name in Kabat numbering, V domains shown)
VH: B1 VH
VL: B1 VL with V30P, D97T
notes: one-arm IgG as m2

Numbering of substitutions follows the chain as printed.

The target in this test is T1, CD3 epsilon homodimer protein (UniProt P07766 23-126).
T1 construct: also called CD3 (CD3 epsilon)
T1 sequence (P07766 23-126): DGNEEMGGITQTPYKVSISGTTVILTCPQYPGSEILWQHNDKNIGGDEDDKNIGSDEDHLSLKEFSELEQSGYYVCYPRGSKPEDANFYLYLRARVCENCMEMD
Put plainly: SPR Biacore T200, CD3e homodimer on chip, vs unaltered GLS3000 antibody.
Take B1: the “ratio of amounts bound (Z=Y/X)” value was found to be 0.18.
With B2 the figure was 0.32.
With B3 the figure was 0.33; with B4, 0.31; with B5, 0.81.
The same measure for B6: 0.42; for B7: 0.51.
Take B8: the “ratio of amounts bound (Z=Y/X)” value was 0.66.
B9: the “ratio of amounts bound (Z=Y/X)” value was 0.48.
Consider B10, for which the “ratio of amounts bound (Z=Y/X)” value turned out to be 1.05.
With B11 the figure was 0.57; with B12, 0.96; with B13, 0.77.
With B14 the figure was 0.89; with B15, 0.78.
Turning to B16, the “ratio of amounts bound (Z=Y/X)” value worked out at 0.34.
The same measure for B17: 0.33; for B18: 1.05; for B19: 0.26.
The same measure for B20: 0.5; for B21: 0.96; for B22: 0.61.
With B23 the figure was 0.17.
B24: the “ratio of amounts bound (Z=Y/X)” value was 0.44.
The same measure for B25: 0.71; for B26: 0.44.
With B27 the figure was 0.84.
The same measure for B28: 0.84.
As for B29, the “ratio of amounts bound (Z=Y/X)” value is 0.32.
On to B30, for which the “ratio of amounts bound (Z=Y/X)” value was 0.64.
B31: the “ratio of amounts bound (Z=Y/X)” value stood at 0.3.
